For test [1], the target named is Sindbis virus strain TR339 (virions; also structural proteins on infected Vero cells) (Sindbis virus). The experiment in a line: cell-based or functional assay.
Test [2] shares this target.
Test [3] concerns the target Mayaro virus (MAYV) structural proteins on infected cells (Mayaro virus). The experiment in a line: flow cytometry, surface staining of MAYV-infected Vero cells with serial dilutions, % binding to infected cells.

The values below come from patent US20240124553A1.

As usually defined, the EC50 (read off the curve) is the concentration giving half of the maximal effect. The low end stands for higher potency in that assay, the high end for lower potency in that assay. As for “Du-D1-Mo-D2 MXRA8-Fc (chimeric duck D1 - mouse D2 MXRA8, duck stalk) (from UniProt Q9DBV4 23-65; Q9DBV4 195-293) (Fc fusion)”, the neutralization of SINV TR339 infection, EC50 against that of duck MXRA8-Fc in test [1] turned out to be 3 fold. The substance also had a neutralisation of SINV-GFP infection; IC50 (read off the curve) in test [2] of 0.3 µg/mL. In addition, in test [3], the EC50 (read off the curve) was 0.04 µg/mL.
